B1: library; numbered along this chain (parent)
chain: MATDAALRRLLRLHRTEIAVAVDSAFPLLHALADHDVVPEDKFQETLHLKEKEGCPQAFHALLSWLLTQDSTAILDFWRVLFKDYNLERYGRLQPILDSFPKDVDLSQPRKGRKPPAVPKALVPPPRLPTKRKASEEARAAAPAALTPRGTASPGSQLKAKPPKKPESSAEQQRLPLGNGIQTMSASVQRAVAMSSGDVPGARGAVEGILIQQVFESGGSKKCIQVGGEFYTPSKFEDSGSGKNKARSSSGPKPLVRAKGAQGAAPGGGEARLGQQGSVPAPLALPSDPQLHQKNEDECAVCRDGGELICCDGCPRAFHLACLSPPLREIPSGTWRCSSCLQATVQEVQPRAEEPRPQEPPVETPLPPGLRSAGEEVRGPPGEPLAGMDTTLVYKHLPAPPSAAPLPGLDSSALHPLLCVGPEGQQNLAPGARCGVCGDGTDVLRCTHCAAAFHWRCHFPAGTSRPGTGLRCRSCSGDVTPAPVEGVLAPSPARLAPGPAKDDTASHEPALHRDDLESLLSEHTFDGILQWAIQSMARPAAPFPS

Variants of: B1
Assay: AIRE transcriptional activation functional score (insulin promoter-GFP; nonsense median 0, synonymous median 1) (normalised score); higher = higher AIRE activity (more reporter activation)
Conditions: with insulin promoter-GFP reporter in HEK293
Method: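 Deep mutational scan of full-length human AIRE (codon-optimized cDNA, DT-POPCode NNN libraries over three regions) integrated at a Bxb1 landing pad in HEK293 cells carrying an insulin core promoter-GFP reporter at a Flp-In site. Cells were sorted for the top 10% GFP about 14 days after transfection. Variant frequency log-ratios (select vs non-select, TileSeq) were rescaled so that the nonsense median is 0 and the synonymous median is 1, then averaged over biological replicates.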

AIRE transcriptional activation functional score, by site and new letter:
L210: Y 0.854 | Q 0.0497 | M 0.6 | H 0.71 | P 0.65 | E -0.0363 | I 0.93 | F 1.01 | A 0.581 | C 0.0167 | R 0.504 | G 0.615 | V 0.768 | W 0.57 | S 0.327
G197: Q 0.484 | V 1.14 | F 0.852 | P 1.23 | C 1.17 | I 1.09 | L 1.06 | D 0.624 | W 0.323 | N 1.26 | E 0.192 | Y 0.74 | K 0.734 | T 0.444 | A 0.912 | H 0.619 | M 0.448 | S 1.12 | R 1.01
Q212: A -0.0175 | S 1.14 | K 1.04 | I -0.568 | F 0.392 | W -0.0246 | G 0.371 | C 1.01 | H 1.68 | L -0.00712 | R 1.09 | T 0.447 | D -0.139 | P 0.358 | E 0.507 | V -0.424
Q213: G 0.977 | F -0.348 | L 0.173 | A 0.437 | I -0.822 | H 1.15 | E 0.718 | C 0.354 | K 1.02 | M -0.306
I211: K 0.0368 | P -0.156 | S 0.773 | C 0.481 | E -0.399 | G 0.694 | W 0.83 | Y 1.04 | F 0.181 | V 1.15 | M 0.504 | D 0.837 | L 0.428 | R 0.0828 | A -0.0822
V206: N 0.529 | S 0.691 | F 0.751 | G 0.631 | H 0.927 | I 1.26 | T 0.68 | E 0.273 | L 1.1 | Y 0.936 | K 0.691 | P 0.762 | W 0.352 | Q 0.0809 | M 0.51 | R 0.478 | D 0.39 | A 0.817 | C 0.542
G201: W 0.489 | R 0.837 | Q 1.05 | T 0.924 | I 1.23 | Y 1.17 | V 0.941 | F 1.02 | N 1.01 | D 0.481 | C 1.03 | E 0.791 | S 0.809 | P 0.598 | A 0.802 | M 1.67 | K 0.778 | L 1.32 | H 1.02
P200: G 0.879 | H 1.08 | D 0.545 | S 1.06 | I 0.675 | N 1.12 | T 0.911 | V 0.795 | A 0.713 | Q 1.18 | M 1.52 | F 0.777 | L 1.12 | Y 0.0754 | K 0.571 | C 1.43 | R 0.99
A205: E 0.647 | Y 0.153 | I -0.0126 | L 0.428 | F 0.213 | T 1.19 | C 1 | G 0.764 | P 0.728 | H 1.58 | V 0.34 | R 0.318 | S 1.09 | D 0.746 | W -0.461 | N 0.648 | K 1.17 | Q 0.529 | M -0.0564
S195: P 0.83 | H 0.996 | M 0.346 | R 1.13 | G 0.859 | C 0.945 | I 0.0828 | D 0.8 | F 0.0295 | K 0.873 | T 1.31 | N 0.649 | Q 0.659 | L 0.116 | E 0.862 | A 1.31 | Y 0.427 | V 0.475 | W -0.0899
E207: C 0.532 | Q 0.672 | D 0.788 | M -0.394 | I 0.19 | F 0.67 | V -0.0618 | W -0.268 | L 0.143 | S 0.372 | T 0.3 | K 0.169 | G 1.11 | A -0.0187 | P 0.476 | R 0.167 | N 0.371 | H 0.756 | Y 0.0192
S196: H 1.01 | A 0.621 | K 0.809 | R 1.16 | I 0.678 | M 0.982 | D 0.944 | Y 0.776 | G 0.938 | T 0.82 | F 0.117 | Q 1.11 | N 0.962 | W 0.394 | P 0.792 | C 1.24 | L 0.512 | E 1.06 | V 1.27
V199: M 1.18 | P 0.723 | Y 1.4 | C 0.807 | G 1.09 | F 1.24 | T 0.462 | L 0.982 | D 0.863 | E 0.905 | I 1.37 | R 0.735 | K 0.754 | N 0.886 | A 0.731 | W 0.623 | H 0.599 | S 0.671 | Q 0.755
G208: N 0.00613 | F -0.178 | Y -0.0457 | C 0.43 | S 0.651 | K 0.899 | E 0.502 | W 0.199 | I -0.141 | T 0.433 | P 0.201 | Q 1.23 | R 0.0966 | D 0.296 | L 0.332 | V 0.173 | H -0.0252 | M 0.171 | A 0.173
A202: R 1.08 | D 0.687 | Y 1.13 | Q 0.415 | M 1.19 | W 0.488 | E 0.791 | V 1.11 | K 0.112 | C 1.39 | L 0.939 | H 1 | S 0.848 | P 0.867 | F 0.397 | N 1.59 | I 0.93 | T 0.777 | G 0.818
G204: W 0.133 | C 0.575 | V 0.123 | L 0.339 | P 1.08 | E 0.847 | K 0.976 | I 0.113 | Y 0.0127 | S 0.807 | A 1.42 | Q 0.897 | D 0.621 | T 1 | F -0.0648 | H 1.43 | R 1.32 | N 0.413
R203: C 1.82 | Y 0.581 | E -0.0204 | A 1.19 | T 0.744 | F 0.572 | I 1.2 | P 1.03 | Q 1.13 | W 0.289 | H 0.141 | G 0.547 | K 0.243 | V 1.57 | S 0.794 | N 0.0951 | L 1.1
D198: A 1.03 | G 1.08 | R 0.663 | Y 0.99 | Q 0.627 | E 1.2 | I 0.948 | N 1.09 | F 0.583 | M 1.02 | K 0.684 | T 1.51 | S 1.19 | C 0.704 | V 0.978 | L 0.549 | W -0.417 | H 0.856 | P 0.58
I209: W 0.784 | D 0.64 | G 0.579 | N 0.657 | K 0.159 | E 0.5 | Y 0.98 | C -0.0153 | A 0.165 | M 0.79 | T 0.1 | L 0.758 | F 0.905 | P 0.35 | V 0.66 | R 0.917 | S 0.203

Reference: the supplement of paper PMC12667976
